Assay [1] concerns the target human chemokine (C-C motif) receptor 8 (CCR8) (human) (UniProt P51685). Put plainly: flow cytometry, human PBMC, CD3+ gate; % cells stained by PE-L263G8 after isotype control block. (A flow cytometer gives signals particle by particle.)
Assay [2] shares this target. Put plainly: flow cytometry, human PBMC, CD3+ gate; % cells stained by PE-433H after isotype control block.
Assay [3] deals with T1, human chemokine (C-C motif) receptor 8 (CCR8) (human, UniProt P51685 1-355).
T1 construct: also called hCCR8
T1 sequence (P51685 whole entry): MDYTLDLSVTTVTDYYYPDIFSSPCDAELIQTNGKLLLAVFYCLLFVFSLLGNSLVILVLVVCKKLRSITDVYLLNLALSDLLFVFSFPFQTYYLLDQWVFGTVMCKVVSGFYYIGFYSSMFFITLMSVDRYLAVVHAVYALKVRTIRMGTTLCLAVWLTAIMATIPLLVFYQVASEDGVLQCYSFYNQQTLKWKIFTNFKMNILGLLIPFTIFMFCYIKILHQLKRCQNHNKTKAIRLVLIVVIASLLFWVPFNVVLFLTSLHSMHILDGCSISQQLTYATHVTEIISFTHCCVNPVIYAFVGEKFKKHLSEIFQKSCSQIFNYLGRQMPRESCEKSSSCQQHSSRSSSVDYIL
As to the kind of experiment: flow cytometry blocking, human PBMC, CD3+ gate; competitor PE-AB14. Here is the method: (§1) For blocking studies, 100 μL of the cell suspension were incubated with 10 μg purified isotype control, AB1, AB2, AB3, AB4, AB5, AB8, AB9, AB10, AB11, AB12, AB13, AB14, AB15, and Commercial ABI antibodies, or isotype control, as blocking agents.
(§2) After incubation with the blocking agent, the cells were incubated with 0.25 μg of the indicated PE-conjugated antibody plus anti-human CD4 APC or anti-human CD3 for another 15 minutes in the dark and then washed 2 times with Cell Staining Buffer, and acquired in a FACSCanto II flow cytometer (BD Biosciences); the data was analyzed using FCS Express (De Novo Software); MFI correspond to the CCR8+ CD4+ lymphocytes or CCR8+ CD3+ lymphocytes.
(§3) Percentage original MFI was calculated by dividing the MFI of samples blocked with AB1, AB2, AB3, AB4, AB5, AB6, AB7, AB8, AB9, AB10, AB11, AB12, AB13, AB14, AB15, and Commercial ABI antibodies, by the MFI of samples blocked with the corresponding isotype control. This value was subtracted from 100 to get a blocking percentage. The formula is shown below: […]

The target in assay [4] is T1, human chemokine (C-C motif) receptor 8 …. Put plainly: flow cytometry blocking, human PBMC, CD3+ gate; % cells stained by competitor PE-AB11 after block. Here is the method: as §1, §2
For assay [5] the target is unchanged. Put plainly: flow cytometry blocking, human PBMC, CD3+ gate; competitor PE-L263G8.
Assay [6] has the same target. As to the kind of experiment: flow cytometry blocking, human PBMC, CD3+ gate; % cells stained by competitor PE-AB5 after block. Here is the method: as §1, §2
For assay [7] the target is unchanged. Put plainly: flow cytometry blocking, human PBMC, CD3+ gate; competitor PE-AB11. Here is the method:
as §1, §2, §3

Assay [8] has the same target. Put plainly: flow cytometry blocking, human PBMC, CD3+ gate; % cells stained by competitor PE-L263G8 after block. Here is the method:
as §1, §2

The target is the same in assay [9]. As to the kind of experiment: flow cytometry blocking, human PBMC, CD3+ gate; competitor PE-AB5. Here is the method: as §1, §2, §3
For assay [10] the target is unchanged. As to the kind of experiment: flow cytometry blocking, human PBMC, CD3+ gate; competitor PE-AB13. Here is the method: as §1, §2, §3
Assay [11] has the same target. As to the kind of experiment: flow cytometry blocking, human PBMC, CD3+ gate; % cells stained by competitor PE-AB12 after block. Here is the method:
as §1, §2

Assay [12] shares this target. Put plainly: flow cytometry blocking, human PBMC, CD3+ gate; competitor PE-AB8. Here is the method:
as §1, §2, §3

The target is the same in assay [13]. As to the kind of experiment: flow cytometry blocking, human PBMC, CD3+ gate; % cells stained by competitor PE-AB13 after block. Here is the method: as §1, §2
Assay [14] shares this target. Put plainly: flow cytometry blocking, human PBMC, CD3+ gate; % cells stained by competitor PE-AB8 after block. Here is the method:
as §1, §2

Assay [15] has the same target. As to the kind of experiment: flow cytometry blocking, human PBMC, CD3+ gate; competitor PE-433H.
Assay [16] shares this target. Put plainly: flow cytometry blocking, human PBMC, CD3+ gate; % cells stained by competitor PE-433H after block. Here is the method: as §1, §2
For assay [17] the target is unchanged. Put plainly: flow cytometry blocking, human PBMC, CD3+ gate; competitor PE-AB12. Here is the method:
as §1, §2, §3

Assay [18] has the same target. Put plainly: flow cytometry blocking, human PBMC, CD3+ gate; competitor PE-AB10. Here is the method: as §1, §2, §3
Assay [19] shares this target. As to the kind of experiment: flow cytometry blocking, human PBMC, CD3+ gate; competitor PE-AB7. Here is the method: as §1, §2, §3
The target is the same in assay [20]. As to the kind of experiment: flow cytometry blocking, human PBMC, CD3+ gate; competitor PE-AB15. Here is the method: as §1, §2, §3
The target is the same in assay [21]. Put plainly: flow cytometry blocking, human PBMC, CD3+ gate; % cells stained by competitor PE-AB6 after block. Here is the method: as §1, §2
For assay [22] the target is unchanged. As to the kind of experiment: flow cytometry blocking, human PBMC, CD3+ gate; competitor PE-AB6. Here is the method:
as §1, §2, §3

The target is the same in assay [23]. As to the kind of experiment: flow cytometry blocking, human PBMC, CD3+ gate; % cells stained by competitor PE-AB7 after block. Here is the method:
as §1, §2

Assay [24] has the same target. Put plainly: flow cytometry blocking, human PBMC, CD3+ gate; % cells stained by competitor PE-AB10 after block. Here is the method: as §1, §2
For assay [25] the target is unchanged. Put plainly: flow cytometry blocking, human PBMC, CD3+ gate; % cells stained by competitor PE-AB14 after block. Here is the method:
as §1, §2

The target is the same in assay [26]. As to the kind of experiment: flow cytometry blocking, human PBMC, CD3+ gate; % cells stained by competitor PE-AB15 after block. Here is the method:
as §1, §2

Where a chain is given by its changes, count along the chain named.

Sequence of human chemokine (C-C motif) receptor 8 (CCR8) (human) (P51685 whole entry): as above

As to “Commercial L263G8 anti-human CCR8 antibody”, the % Positive cells in assay [1] stood at 5.87%.

B1: Commercial 433H anti-human CCR8 antibody (antibody, from another filing, V domains shown)
VH: EVQLVETGGGLVQPKGSLRLSCAASGFPFNTFAMNWVRQAPGKGLEWLARIRSKSNNYATYYADSVKDRFTISRDDSRRMLYLLMNNVKFEDTAIYYCVRGKENNYGYAMDYWGQGTSVTVSS
VL: DIVMTQAAPSVPVTPGESVSISCRSSQSLLHSNGNTYLYWFLQRPGQSPQLLIYRMSNLASGVPDRFSGSGSGTAFTLRISRVEAEDVGVYYCMQHLEYPFTFGIGTKLELKR
As to B1, the % Positive cells in assay [2] turned out to be 7.07%.

B2: anti-CCR8 monoclonal antibody AB11 (antibody, V domains shown)
VH: EVQLVESGGGLVQPKGSLKLSCAASGFAFNTYAMNWVRQAPGKGLEWIARLRSKSNFYATYYADSVKDRFTISRDDSQSMLYLQMNNLKTEDTAVYYCVRGRELGPSYAMDYWGQGTSVTVSS
VL: DIVMTQAAPSVPVTPGESVSISCRSSKSLLHSNGNTYLYWFLQRPGQSPQLLIYRMSNLASGVPDRFSGSGSGTAFTLRISRVEAEDVGVYYCMQHLEYPYTFGGGTKLEIK
notes: Hybridoma monoclonal; also called antibody 11; clone 11
In the case of B2, the “% Blocking” value in assay [3] was 98.3%; in [5], 92.7%; in assay [7], 98.7%; in assay [9], -2.41%; in [10], 94.1%; in assay [12], -4.02%. The “% Blocking” value in [15] turned out to be 47.2%; in [17] it was 97.7%; in assay [18] it was 96.5%; in assay [19] it was 2.53%; in [20] it was 97.6%; in [22], 2.9%. The “% Positive cells” value in assay [4] was 0.09%; in assay [6], 8.49%; in [8] it was 0.43%; in [11], 0.17%; in assay [13] it was 0.39%; in assay [14], 8.8%. Further, the “% Positive cells” value in assay [16] came to 3.73%; in [21], 8.04%; in assay [23], 8.87%; in assay [24] it was 0.21%; in assay [25] it was 0.12%; in [26], 0.16%.

B3: anti-CCR8 monoclonal antibody AB13 (antibody, V domains shown)
VH: EVQLVETGGGLVQPKGSLKLSCAASGFTFNAYAMNWVRQAPGKGLEWVARIRTKSNNYATYYADSVKDRFTISRDDSQTMLYLQMNNLKTEDTAMYYCVRDRATVTTGRAMDYWGQGTSVTVSS
VL: B2 VL with V11L, P45A, Y101F, G105S
notes: Hybridoma monoclonal; also called antibody 13; clone 13
As for B3, the “% Blocking” value in assay [3] is 39.4%; in assay [5] it was 20.3%; in assay [7], 0.85%; in [9] it was -1.21%; in assay [10] it was 34.7%; in assay [12], 25.3%. In addition, the “% Blocking” value in [15] was 6.93%; in assay [17], 20.3%; in [18] it was -2.65%; in assay [19], 30.3%; in assay [20], 46.5%; in assay [22] it was -4.11%. For the same molecule, the “% Positive cells” value in assay [4] came to 6.96%; in assay [6], 8.39%; in [8], 4.68%; in assay [11], 6%; in assay [13], 4.34%; in [14], 6.32%. In addition, the “% Positive cells” value in assay [16] turned out to be 6.58%; in assay [21], 8.62%; in assay [23], 6.34%; in assay [24], 6.19%; in assay [25], 4.32%; in assay [26], 3.52%.
